Test results: patent US20240228570A9, “PLATFORM TECHNOLOGY FOR TREATMENT OF INFLAMMATORY, IMMUNOLOGICAL AND/OR AUTOIMMUNOLOGICAL DISEASES” (ellennbe GmbH, priority 2021, published 2024)

System: inflammatory disease, immunological disease and/or autoimmunological disease
Assay: Treatment of patients: condition as stated by patient and physician (pain, fatigue, daily life, duration of effect, relapses)
Assay type: in vivo, human
Conditions: Patient 11, ankylosing spondylitis; within half a year the biologics lost their effect
Method: All patients treated in the following Inventive Examples, Reference Examples and Comparative Examples were selected solely based on their diagnosis without performing a preselection in view of other parameters.
Annotation to the Tables 8A and B and 9 to 10: Patients were usually examined and treated in the same session. The success of the treatment or the effect thereof was then determined in the following session, usually one week later, and the next treatment performed as indicated in the tables.

B1: Cimzia®: biologic, certolizumab pegol (antibody, chains of the INN, looked up, V domains shown)
VH: EVQLVESGGGLVQPGGSLRLSCAASGYVFTDYGMNWVRQAPGKGLEWMGWINTYIGEPIYADSVKGRFTFSLDTSKSTAYLQMNSLRAEDTAVYYCARGYRSYAMDYWGQGTLVTVSS
VL: DIQMTQSPSSLSASVGDRVTITCKASQNVGTNVAWYQQKPGKAPKALIYSASFLYSGVPYRFSGSGSGTDFTLTISSLQPEDFATYYCQQYNIYPLTFGQGTKVEIK
modifications: Fab' PEG (pegol)
  effect of earlier treatment with biologics (patient's report): had little effect from the outset
